{
  "source": "patent US20200079865A1",
  "about": "(Bristol-Myers Squibb, published 2020)",
  "binders": {"B1": {"name": "recombinant hGITR-L trimer (R&D Systems #6987-GL) (ligand)", "chain": "LQLETAKEPCMAKFGPLPSKWQMASSEPPCVNKVSDWKLEILQNGLYLIYGQVAPNANYNDVAPFEVRLYKNKDMIQTLTNKSKIQNVGGTYELHVGDTIDLIFNSEHQVLKNNTYWGIILLANPQFIS", "notes": "Bought soluble trimer, detected through a hemagglutinin (HA) tag; also called GITR Ligand; rhGITR-L"}},
  "key": {"[1]": {"biological_target": "T1, human GITR, membrane bound (on activated human T cells, 3A9-hGITR cells, huGITR knock-in mouse T cells) (human, UniProt Q9Y5U5 26-241)", "T1 construct": "also called TNFRSF18", "T1 sequence": "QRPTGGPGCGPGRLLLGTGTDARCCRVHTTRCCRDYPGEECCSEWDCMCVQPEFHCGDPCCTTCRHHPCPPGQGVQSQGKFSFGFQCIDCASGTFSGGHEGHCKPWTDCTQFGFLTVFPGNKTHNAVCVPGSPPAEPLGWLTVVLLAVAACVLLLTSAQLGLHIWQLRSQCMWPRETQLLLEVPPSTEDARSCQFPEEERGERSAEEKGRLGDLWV", "experiment": "FACS competition on PHA-activated human T cells, pre-bound GITR-L against 0.5 ug/ml 28F3-hIgG1; partial inhibition", "source_text": "(§1) The samples were acquired on a FACS Canto Flow Cytometer (BD, San Jose) and analyzed with FlowJo software (Tree Star, Inc, Ashland, Oreg.)."}, "[2]": {"biological_target": "T1, human GITR, membrane bound (on …)", "experiment": "FACS on PHA-activated human CD4+ and CD8+ T cells, anti-HA detection", "source_text": "as §1"}, "[3]": {"biological_target": "T1, human GITR, membrane bound (on …)", "experiment": "FACS competition on activated human CD4+ T cells: pre-bound GITR-L titrated, then 28F3-hIgG1 at a fixed 0.5 ug/mL, detected with PE anti-human IgG Fc; unit from the axis", "source_text": "as §1"}, "[4]": {"biological_target": "T1, human GITR, membrane bound (on …)", "experiment": "FACS (MFI, PE anti-HA tag) on PHA-activated human T cells, CD4 column; the table's row head reads IC50, the text calls it EC50; unit from the axis", "source_text": "as §1"}, "[5]": {"biological_target": "T1, human GITR, membrane bound (on …)", "experiment": "FACS (MFI, PE anti-HA tag) on PHA-activated human T cells, CD8 column; the table's row head reads IC50, the text calls it EC50; unit from the axis", "source_text": "as §1"}},
  "data": [
    {"binder": "B1", "values": [
      {"measurement": "IC50", "setting": "[1]", "value": 0.0024, "unit": "µg/mL"},
      {"measurement": "EC50", "setting": "[2]", "value": 0.016, "unit": "µg/mL"},
      {"measurement": "IC50", "setting": "[3]", "value": 0.00244, "unit": "µg/mL"},
      {"measurement": "EC50", "setting": "[4]", "value": 0.016, "unit": "µg/mL"},
      {"measurement": "EC50", "setting": "[5]", "value": 0.0163, "unit": "µg/mL"}
    ]}
  ]
}
